B1: TAQ nucleic acid ligand (ssDNA)
DNA: TGGCGGAGCGATCATCTCAGAGCATTCTTAGCGTTTTGTTCTTGTGTATGA

What was measured:
[1] = target: T1, PDGF (platelet derived growth factor) (Homo sapiens, UniProt P01127 P01127:82-190); test: competition; ligand beacon (SEQ ID NO:2) fluorescence decreases with PDGF; 100 nM aptamer, PBSM (1 mM MgCl2), 4 uM tRNA, 30 C; also in human plasma at 37 C; settings: chain copies: 2
Experimental: The PDGF ligand beacon was used in an assay in which 100 nM PDGF nucleic acid ligand above was mixed with an increasing concentration of PDGF for 10 minutes at 30° C. […] in PBSM buffer containing 4 µM tRNA. Then, 100 nM PDGF ligand beacon was added and the mixture was incubated for 10 minutes at 30° C. A measurement of fluorescein emission at 530 nm was made for each concentration of PDGF using 488 nm monochromatic laser light for excitation in a 96 well format Vistra Fluorimager SI. […] This is the expected result, because as the concentration of PDGF increases, the concentration of PDGF nucleic acid ligand that is not bound to PDGF decreases. Thus, there is a smaller pool of PDGF nucleic acid ligand for the PDGF ligand beacon to hybridize to.

[2] = target: T1, PDGF (platelet derived growth factor); test: competition; no change in beacon fluorescence; 100 nM aptamer, PBSM, 4 uM tRNA, 37 C; settings: chain copies: 2
Experimental: Specificity of Nucleic Acid Ligand Interaction with Target in the Presence of Ligand Beacon In the previous examples, a concentration-dependent signal reduction was observed when the target was added. This should not be observed when the wrong target protein is added. This point is illustrated in FIG. 7, where TAQ-nucleic acid ligand (100 nM) was mixed with increasing concentrations of PDGF in PBSM buffer containing 4 μM tRNA at 37° C. for 10 min. Then 110 nM TAQ-ligand beacon was added, incubated for an additional 10 min at the same temperature and fluorescence was measured.

T1 sequence (P01127 82-190, one chain of several): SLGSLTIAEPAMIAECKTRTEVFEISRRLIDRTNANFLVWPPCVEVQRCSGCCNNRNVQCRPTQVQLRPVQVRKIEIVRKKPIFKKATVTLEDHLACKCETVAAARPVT

Binder	binding result [1]	binding result [2]
TGGGAGGGCGCGTTCTTCGTGGTTACTTTTAGTCCCGT (ssDNA) [PDGF nucleic acid ligand]	binds	
B1		no binding
